Holding throughout (experiment): Catalytic efficiency with oligosaccharides, HPAEC (Man5A-TM2)
What all share (format): biochemical, Caldanaerobius polysaccharolyticus
Common to all, as to conditions: other: Man5A-TM2 0.3 μM, oligosaccharide 30 μM, citrate buffer 50 mM, pH 5.5, 5 min, triplicate

Substrate in data set [1]: OC[C@H]1O[C@@H](O[C@H]2[C@H](O)[C@@H](O)[C@H](O[C@H]3[C@H](O)[C@@H](O)[C@H](O[C@H]4[C@H](O)[C@@H](O)[C@H](O[C@H]5[C@H](O)[C@@H](O)[C@H](O[C@H]6[C@H](O)[C@@H](O)C(O)O[C@@H]6CO)O[C@@H]5CO)O[C@@H]4CO)O[C@@H]3CO)O[C@@H]2CO)[C@H](O)[C@@H](O)[C@@H]1O
As for the experimental part:
(§1) Cloning, expression, and purification of Man5A-TM1, Man5A-TM2 and Man5B. C. polysaccharolyticus was cultured in TYG medium and DNA was isolated from mid-log cultures and purified using the Qiagen DNeasy Blood and Tissue kit with an integrated RNase treatment step. The genome of C. polysaccharolyticus was partially sequenced by the W. M. Keck Biotechnology Center at the University of Illinois at Urbana-Champaign. A Newbler assembly was generated which is comprised of ½ plate of FLX PE 454 data and ½ plate of 8 kb paired-end GSFLX Titanium data using a Genome Sequencer instrument from 454 Life Sciences (Branford, Conn.). The partial genome sequence was uploaded onto the Rapid Annotation using Subsystem Technology (RAST) server (Aziz et al., BMC Genomics, 9:75, 2008). Auto-annotation of the C. polysaccharolyticus partial genome sequence identified ORF0760 as a gene predicted to encode a bifunctional β-D-mannanase/endoglucanase (Man5B). Man5A was previously identified in a recombinant phage library of C. polysaccharolyticus genomic DNA, which was screened for endoglucanase activity (Cann et al., J Bacteriol, 181:1643, 1999) and the full sequence of this gene was also identified in the partial genome sequence for C. polysaccharolyticus.
(§2) The DNA sequence corresponding to man5B was amplified by the PicoMaxx high fidelity PCR kit using genomic DNA as the template with the primer set Man5B-Forward and Man5B-Reverse (Table 1-1). The primers were engineered to incorporate a 5′-[…] (SEQ ID NO: 54) extension in Man5B-F and a 5′-[…] (SEQ ID NO: 55) extension in Man5B-R, which facilitated subsequent directional cloning. The resultant man5B amplicon was then digested with T4 DNA polymerase exonuclease activity, annealed with a similarly digested pET-46b vector and introduced into E. coli JM109 by electroporation. Man5A-TM1 was amplified using genomic DNA as template with primers Man5A-TM1-F and Man5A-TM1-R (Table 1-1). The primer sets for Man5A-TM1 and Man5A-TM2 were designed to include 5′-NdeI and 3′-XhoI restriction sites for subsequent directional cloning. The resulting amplicons were then cloned into the pGEM-T vector via TA-cloning and subcloned in-frame with the hexahistidine (His6) encoding sequence of a modified pET-28a expression vector via its NdeI-XhoI polylinker site. The truncated protein Man5A-TM2 originally named ManA-SLH-CBD was cloned as described in a previous study (Cann et al., J Bacteriol, 181:1643, 1999). Expression of each of the resulting gene constructs yielded fusion proteins containing an N-terminal polyhistidine tag sequence to facilitate affinity purification via metal chelate chromatography. The resulting plasmid constructs pET46-Man5B, pET28a-Man5A-TM1, and pET-28a-Man5A-TM2 were sequenced to confirm the integrity of the cloned genes (W. M. Keck Center for Comparative and Functional Genomics at the University of Illinois at Urbana-Champaign).
(§3) The plasmid constructs were then introduced into E. coli BL-21 CodonPlus (DE3) RIL competent cells by heat shock, and grown overnight in lysogeny broth (LB) agar medium supplemented with ampicillin (100 μg/mL) and chloramphenicol (50 μg/mL) at 37° C. After 12 h, single colonies were selected and used to inoculate fresh LB (10 mL) supplemented with the antibiotics above at the same concentrations, followed by culturing with aeration for 8 h at 37° C. The pre-cultures were then inoculated into fresh LB (1 L) supplemented with ampicillin and chloramphenicol and the cultures were incubated at 37° C. with vigorous aeration (225 rpm/min). The cultures were grown to an optical density of 0.3 at 600 nm, and the temperature was shifted to 16° C. and gene expression was induced by the addition of 0.1 mM isopropyl β-D-thiogalactopyranoside (IPTG). […]

Substrate in data set [2]: OC[C@H]1O[C@@H](O[C@H]2[C@H](O)[C@@H](O)[C@H](O[C@H]3[C@H](O)[C@@H](O)[C@H](O[C@H]4[C@H](O)[C@@H](O)C(O)O[C@@H]4CO)O[C@@H]3CO)O[C@@H]2CO)[C@H](O)[C@@H](O)[C@@H]1O
As for the experimental part:
as §1, §2, §3

Substrate in data set [3]: OC[C@H]1O[C@@H](O[C@H]2[C@H](O)[C@@H](O)[C@H](O[C@H]3[C@H](O)[C@@H](O)[C@H](O[C@H]4[C@H](O)[C@@H](O)[C@H](O[C@H]5[C@H](O)[C@@H](O)C(O)O[C@@H]5CO)O[C@@H]4CO)O[C@@H]3CO)O[C@@H]2CO)[C@H](O)[C@@H](O)[C@@H]1O
The protocol:
as §1, §2, §3

Substrate in data set [4]: OC[C@H]1O[C@@H](O[C@H]2[C@H](O)[C@H](O)[C@H](O[C@H]3[C@H](O)[C@H](O)[C@H](O[C@H]4[C@H](O)[C@H](O)C(O)O[C@@H]4CO)O[C@@H]3CO)O[C@@H]2CO)[C@@H](O)[C@@H](O)[C@@H]1O
As for the experimental part: as §1, §2, §3

Substrate in data set [5]: OC[C@H]1O[C@@H](O[C@H]2[C@H](O)[C@H](O)[C@H](O[C@H]3[C@H](O)[C@H](O)[C@H](O[C@H]4[C@H](O)[C@H](O)[C@H](O[C@H]5[C@H](O)[C@H](O)C(O)O[C@@H]5CO)O[C@@H]4CO)O[C@@H]3CO)O[C@@H]2CO)[C@@H](O)[C@@H](O)[C@@H]1O
As for the experimental part: as §1, §2, §3

Substrate in data set [6]: OC[C@H]1O[C@@H](O[C@H]2[C@H](O)[C@H](O)[C@H](O[C@H]3[C@H](O)[C@H](O)[C@H](O[C@H]4[C@H](O)[C@H](O)[C@H](O[C@H]5[C@H](O)[C@H](O)[C@H](O[C@H]6[C@H](O)[C@H](O)C(O)O[C@@H]6CO)O[C@@H]5CO)O[C@@H]4CO)O[C@@H]3CO)O[C@@H]2CO)[C@@H](O)[C@@H](O)[C@@H]1O
The protocol:
as §1, §2, §3

A word on the kcat/Km: it is the turnover number divided by the Michaelis constant.

B1: Caldanaerobius polysaccharolyticus endo-β-mannanase Man5A truncation mutant Man5A-TM2, SEQ ID NO: 29 (Caldanaerobius polysaccharolyticus) (protein)
chain: AGTSGDGRFHVVGNKIVDPDGKDFIIKGVNIQGYRSWEKRSVLQDVHLIADVWKFNTVRLNCFIGQNNWGEGTGANNDIDAIIKAFTAKKVVVEIDLHDTTGYPPLSNPPPAPGQPSLDQAIAWFKELAAKYKDNPYVWFNTMNEPGSSTAPLDPQWKVANEEIIKAIRSTGADNIIVVDGWSYANEGIEQNTPTVDEKRSAVLTYGQDLLNADSAKNTIFAFHNYNEGDIQKKVEDYIDRANAKGLYVFMEEYGKDYSDAAKEGVKSGLQAVMNKGAGRIYWNWDGYDLYDLTSGTGRGSGWEINKTDGSKPTNLSWVGDKIWDDNHGITPTFDDQNPKVDLALERLIANNNGFKAGDKVQFTTFLRNSGDLPIGKDSKVVVKFYVDGVQLGDPVEISGGIAVGQRIPVTSPELTVSKTDFTVKAVIDSSSTYADGAEDAVIENNWIEAAFNSTAPSSGYELVVTGIKITPDTVKEGDYVQAQVTVANQGPEATPVTNIIGWFYVNGYYYTLDDAAKSCAEQDNVTLKPGESITLSTKVKYRAAAPFNFSFVLENLYADDQNQSNNSITVNVPVK
Consider B1, for which the kcat/Km in data set [1] was 25000 ± 8000 M⁻¹ s⁻¹; in data set [2], 1800 ± 500 M⁻¹ s⁻¹; in data set [3], 2200 ± 300 M⁻¹ s⁻¹; in data set [4], 11000 ± 1000 M⁻¹ s⁻¹; in data set [5] it was 12000 ± 2000 M⁻¹ s⁻¹; in data set [6], 28000 ± 8000 M⁻¹ s⁻¹.

The record behind these values is patent publication US8357518B2, “Thermostable enzymes for the hydrolysis of mannan-containing polysaccharides” (The Board of Trustees of the University of Illinois, priority 2010, dated 2013).
